US9809645B2, “Anti-Staphylococcus antibody, method for manufacturing same, and usage of same” (priority 2013, dated 2017)
Where a name gives a salt, the structure may show the parent alone.

B1: ZBIA9H: anti-Staphylococcus monoclonal antibody; CDRs SEQ ID NOs: 17-22, variable regions SEQ ID NOs: 23 and 24 (antibody, listed as Mus musculus, V domains shown)
VH: EVQLVESGGGLVQPKGSLKLSCAASGFTFNTYAMNWVRQAPGKGLEWVARIRSKSNNYATYYADSVKDRFTIFRDDSQSILYLQLNNLKTEDTAMYYCVRRGGNPYYAMDYWGQGTSVTVSS
VL: QIVLSQSPAILSASPGEKVTMTCRASSSVSYMHWYQQKPGSSPKPWIYATSNLASGVPGRFSGSGSGTSYSLTISRVEAEDAATYYCQQWSSNPPTFGGGTKLEIK
B2: ZBIA5H: antibody produced by hybridoma NITE BP-1367; heavy and light chain variable regions SEQ ID NOs: 7 and 8 (antibody, listed as Mus musculus, V domains shown)
VH: QIQLVQSGPELKKPGETVKISCKASGYTFTDYSMHWVKQAPGKGLKWMGWINTETGEPTYADDFKGRFAFSLETSASTAYLQINNLKNEDTATYFCARPYYAMDYWGQGTSVTVSS
VL: DIQMTQSPSSLSASLGGKVTITCKASQDINKYIAWYQHKPGKGPRLLIHYTSTLQPGIPSRFSGSGSGRDYSFSISNLEPEDIATYYCLQYDNLLPWTFGGGTKLEIK
B3: ZBIA3H: antibody produced by hybridoma NITE BP-1366; heavy and light chain variable regions SEQ ID NOs: 15 and 16 (antibody, listed as Mus musculus, V domains shown)
VH: EVQLVESGGGLVQPKGSLKLSCAASGFTFNTYAMNWVRQAPGKGLEWVARIRSKSNNYATYYADSVKDRFTISRDDSQSMLYLQMNSLKTEDTAMYYCVRRGGNAIYYAMDYWGQGTSVTVSS
VL: QIVLTQSPAIMSASPGEKVTMTCSANSSVSYMHWYQQKSGTSPKAWIYDTSKLASGVPARFSGSGSGTSYSLTISSMEAEDAATYYCQQWSSNPPTFGSGTKLEIK

Tests used:
[1] = test system: Staphylococcus aureus strain MW2; experiment: Community-acquired MRSA mouse pneumonia model, therapeutic; format: in vivo; settings: 1 mg into tail vein three days after nasal infection with 4×10^8 cells MW2; lungs five days after infection; BALB/c mice; compared to PBS group; Wilcoxon rank sum test; FIGS. 10 and 11
Description: The Staphylococcus aureus strain MW2 was nasally administered, at 4×10^8 cells/40 μL PBS, to female 7-week-old BALB/c mice to allow the bacteria to infect the lungs. Three days later, 0.2 mL of a test sample (PBS, 1 mg anti-Staphylococcus antibody, 1 mg mouse IgG, 1 mg vancomycin hydrochloride (VCM)) was administered into the tail veins.
Five days after the Staphylococcus aureus administration (two days after the test sample administration), the lungs were extirpated, homogenized, and the resulting suspensions were applied to mannitol salt agar plates. They were cultured for 36 hours at 37° C. The number of colonies that appeared was counted, and was used as the number of lung infecting bacteria.

[2] = test system: Staphylococcus aureus (protein A knock-out OS2 strain); experiment: Staphylococcus aureus solid phase Cell-ELISA (live cells immobilized); format: binding; settings: purified antibody; A405; FIG. 2
Description: In order to detect antibodies actually capable of binding to an infectious Staphylococcus capable of growth, the binding of the anti-Staphylococcus antibodies was measured using Staphylococcus aureus solid phase Cell-ELISA in which live cells were immobilized onto a solid phase.
A protein A knock-out OS2 strain was grown in stationary culture for 16 hours at 30° C. in TSB, collected by centrifugation, washed three times using Dulbecco's phosphate buffered saline (-) (hereinafter “PBS”), and adjusted to a concentration of about A600=0.1.
This was dispensed at 100 μL for each well of a 96-well ELISA plate (Nunc, Maxisorp), and the well was left standing for 6 hours at 4° C. to coat the cells. After washing three times with PBS, 300 μL of 1% rabbit serum/PBS was added to each well, and the well was left standing for 16 hours at 4° C. to perform blocking. Furthermore, after washing three times with 0.05% Tween 20/PBS, 100 μL/well of an immunized mouse serum or hybridoma culture supernatant was added to each well, and the well was left standing for 2 hours at 30° C. After washing three times with 0.05% Tween 20/PBS again, 100 μL/well of a goat HRP-labelled F(ab′)2 anti-mouse IgG+IgM (BioSource) or a goat HRP-labelled F(ab′)2 anti-mouse IgG (γ) (KPL) was added as the secondary antibody to each well, and the well was left standing for 2 hours at 30° C. After washing three times with 0.05% Tween 20/PBS, 100 μL/well of ABTS was added to each well as the substrate to allow color to develop, and photometry at A405 was performed using a microplate reader to measure the amount of anti-Staphylococcus antibodies.
The binding affinity between an anti-Staphylococcus antibody and a Staphylococcus was examined by ELTSA reactivity.

[3] = test system: Staphylococcus aureus strain VRS1; experiment: Highly vancomycin-resistant MRSA mouse sepsis model; format: in vivo; settings: 1 mg antibody intraperitoneal with 2-3×10^9 cells VRS1; female BALB/c mice; compared to PBS-administered group and VCM-administered group; Fisher's exact test; FIG. 7
Description: The Staphylococcus aureus strain VRS1, at 2-3×10^9 cells/0.5 mL PBS, and 0.2 mL of a test sample (PBS, 1 mg anti-Staphylococcus antibody, 1 mg mouse IgG, 1 mg vancomycin hydrochloride (VCM)) were administered to the peritoneal cavities of female 7-week-old BALB/c mice, and the number of surviving mice was determined.

[4] = test system: Staphylococcus aureus strain MW2; experiment: Community-acquired MRSA mouse pneumonia model, preventive; format: in vivo; settings: 1 mg into tail vein one hour before nasal infection with 4×10^8 cells MW2; lungs four days after infection; BALB/c mice; compared to PBS group; Wilcoxon rank sum test; FIGS. 8 and 9
Description: A 0.2 mL portion of a test sample (PBS, 1 mg anti-Staphylococcus antibody, 1 mg vancomycin hydrochloride (VCM)) was administered into the tail vein, and one hour after the administration, the Staphylococcus aureus strain MW2 was nasally administered at 4×10^8 cells/40 μL PBS to female 7-week-old BALB/c mice to infect the lungs. Four days after the infection, the lungs were extirpated, suspended using a homogenizer, applied to mannitol salt agar plates, and cultured for 36 hours at 37° C. The number of colonies that appeared was counted, and was defined as the number of lung infecting bacteria.

[5] = test system: Staphylococcus aureus strain MW2; experiment: Community-acquired MRSA mouse sepsis model; format: in vivo; settings: 1 mg antibody intraperitoneal with 8×10^8 cells MW2; female BALB/c mice; compared to PBS-administered group; Fisher's exact test; FIGS. 4 and 5
Description: The Staphylococcus aureus strain MW2, at 8×10^8 cells/0.5 mL PBS, and 0.2 mL of a test substance (PBS, 1 mg anti-Staphylococcus antibody, 1 mg mouse IgG) were administered to the peritoneal cavities of female 7-week-old BALB/c mice, and the number of surviving mice was determined.

Molecule | number of lung infecting bacteria (therapeutic) [1] | binding affinity to Staphylococcus aureus (ELISA reactivity, grouped by added concentration and reactivity) [2] | life-prolonging effect (number of surviving mice) [3] | number of lung infecting bacteria (preventive) [4] | life-prolonging effect (number of surviving mice) [5]
CN[C@H](CC(C)C)C(=O)N[C@H]1C(=O)N[C@@H](CC(N)=O)C(=O)N[C@H]2C(=O)N[C@H]3C(=O)N[C@H](C(=O)N[C@H](C(=O)O)c4cc(O)cc(O)c4-c4cc3ccc4O)[C@H](O)c3ccc(c(Cl)c3)Oc3cc2cc(c3O[C@@H]2O[C@H](CO)[C@@H](O)[C@H](O)[C@H]2O[C@H]2C[C@](C)(N)[C@H](O)[C@H](C)O2)Oc2ccc(cc2Cl)[C@H]1O [VCM, vancomycin hydrochloride, reference compound] | significantly reduced numbers of lung infecting bacteria |  |  |  | 
B1 |  | moderate level of binding affinity |  |  | 
B2 | significantly reduced numbers of lung infecting bacteria | moderate level of binding affinity | significant life-prolonging effects | significantly reduced numbers of lung infecting bacteria | significant life-prolonging effects
B3 | significantly reduced numbers of lung infecting bacteria | moderate level of binding affinity | significant life-prolonging effects | significantly reduced numbers of lung infecting bacteria | significant life-prolonging effects
